Reference: patent US10435480
Where “and” joins values, the source holds several entries; their conditions need not be identical. Equal entries are not always repeated.

Columns and labels:
[1] = target: OMP0 (E. coli) (UniProt P0A910); assay: M2 anti-FLAG-AP 1:1000 and PNPP on OMP0 treated PLA disc
[2] = target: Mouse IgG (Sigma Cat No. 15381) (mouse); assay: immunoassay, OMP18 adsorbed on hydrophobic plate, mouse IgG 2 ug/mL, anti-mouse IgG-AP and PNPP; well 1
[3] = target: Mouse IgG (Sigma Cat No. 15381) (mouse); assay: immunoassay, OMP18 adsorbed on hydrophilic plate, mouse IgG 2 ug/mL, anti-mouse IgG-AP and PNPP; well 1
[4] = target: Rabbit anti-mouse IgG-AP conjugate (Sigma Cat. No. A3688) (rabbit); assay: control without mouse IgG: conjugate only (1/5000) on OMP18, hydrophobic plate
[5] = target: Mouse IgG (Sigma Cat No. 15381) (mouse); assay: immunoassay, OMP18 adsorbed on hydrophilic plate, mouse IgG 2 ug/mL, anti-mouse IgG-AP and PNPP; well 2
[6] = target: Mouse IgG (Sigma Cat No. 15381) (mouse); assay: immunoassay, OMP18 adsorbed on hydrophobic plate, mouse IgG 2 ug/mL, anti-mouse IgG-AP and PNPP; well 2
[7] = target: Rabbit anti-mouse IgG-AP conjugate (Sigma Cat. No. A3688) (rabbit); assay: control without mouse IgG: conjugate only (1/5000) on OMP18, hydrophilic plate

Row | Substance | Absorbance at 405 nm [1] | A405 [2] [A405] | A405 [3] [A405] | A405 [4] [A405] | A405 [5] [A405] | A405 [6] [A405] | A405 [7] [A405]
1 | M2 anti-FLAG alkaline phosphatase conjugated antibody (Sigma Cat No. A9469) | 0.312 A405 and 0.361 A405 and 0.374 A405 | – | – | – | – | – | –
2 | OMP18 (from UniProt P38507 212-269; P38507 212-269) | – | 2.39 | 2.24 | 0.056 | 2.23 | 2.33 | 0.027
